Among the data in patent US20190194326A1 are percent positive PBMC values, retold here.

The target in test [1] is CD4 on chimp PBMC cells (chimp) (UniProt P16004). Nature of the test: flow cytometry, chimp PBMC X282; 1st B4 binding, 2nd Leu3a exposure; Leu3a+ B4- population; competitor B4 pre-bound.
The target is the same in test [2]. Nature of the test: flow cytometry, chimp PBMC X301; 1st B4 binding, 2nd Leu3a exposure; Leu3a+ B4- population; competitor B4 pre-bound.
Test [3] shares this target. Nature of the test: flow cytometry, chimp PBMC X282; 1st B4 binding, 2nd Leu3a exposure; double stained population; competitor B4 pre-bound.
For test [4] the target is unchanged. Nature of the test: flow cytometry, chimp PBMC X282, single label control Leu3a-PE.
Test [5] has the same target. Nature of the test: flow cytometry, chimp PBMC X301, single label control Leu3a-PE.
The target is the same in test [6]. Nature of the test: flow cytometry, chimp PBMC X301; 1st Leu3a binding, 2nd B4 exposure; Leu3a+ B4- population.
Test [7] shares this target. Nature of the test: flow cytometry, chimp PBMC X282; 1st Leu3a binding, 2nd B4 exposure; Leu3a+ B4- population.
The target is the same in test [8]. Nature of the test: flow cytometry, chimp PBMC X301; 1st B4 binding, 2nd Leu3a exposure; double stained population; competitor B4 pre-bound.

As for Leu3a (antibody), the percent positive PBMC in test [1] was 0%; in test [2], 0%; in test [3], 1.2%; in test [4], 25.5%; in test [5], 44%; in test [6], 0.3%. Also, the percent positive PBMC in test [7] came out at 0.1%; in test [8] it was 3%.
